To fix the notation:
B1: CCR3 (protein)
chain: MTTSLDTVETFGTTSYYDDVGLLCEKADTRALMAQFVPPLYSLVFTVGLLGNVVVVMILIKYRRLRIMTNIYLLNLAISDLLFLVTLPFWIHYVRGHNWVFGHGMCKLLSGFYHTGLYSEIFFIILLTIDRYLAIVHAVFALRARTVTFGVITSIVTWGLAVLAALPEFIFYETEELFEETLCSALYPEDTVYSWRHFHTLRMTIFCLVLPLLVMAICYTGIIKTLLRCPSKKKYKAIRLIFVIMAVFFIFWTPYNVAILLSSYQSILFGNDCERSKHLDLVMLVTEVIAYSHCCMNPVIYAFVGERFRKYLRHFFHRHLLMHLGRYIPFLPSEKLERTSSVSPSTAEPELSIVF
modifications: FITC-labeled CCL11, POPC SMALPs with 30% cholesterol
B2: CCR3 (protein)
chain: MTTSLDTVETFGTTSYYDDVGLLCEKADTRALMAQFVPPLYSLVFTVGLLGNVVVVMILIKYRRLRIMTNIYLLNLAISDLLFLVTLPFWIHYVRGHNWVFGHGMCKLLSGFYHTGLYSEIFFIILLTIDRYLAIVHAVFALRARTVTFGVITSIVTWGLAVLAALPEFIFYETEELFEETLCSALYPEDTVYSWRHFHTLRMTIFCLVLPLLVMAICYTGIIKTLLRCPSKKKYKAIRLIFVIMAVFFIFWTPYNVAILLSSYQSILFGNDCERSKHLDLVMLVTEVIAYSHCCMNPVIYAFVGERFRKYLRHFFHRHLLMHLGRYIPFLPSEKLERTSSVSPSTAEPELSIVF
modifications: FITC-labeled CCL11, proteoliposomes with 40% cholesterol
B3: CCR3 (protein)
chain: MTTSLDTVETFGTTSYYDDVGLLCEKADTRALMAQFVPPLYSLVFTVGLLGNVVVVMILIKYRRLRIMTNIYLLNLAISDLLFLVTLPFWIHYVRGHNWVFGHGMCKLLSGFYHTGLYSEIFFIILLTIDRYLAIVHAVFALRARTVTFGVITSIVTWGLAVLAALPEFIFYETEELFEETLCSALYPEDTVYSWRHFHTLRMTIFCLVLPLLVMAICYTGIIKTLLRCPSKKKYKAIRLIFVIMAVFFIFWTPYNVAILLSSYQSILFGNDCERSKHLDLVMLVTEVIAYSHCCMNPVIYAFVGERFRKYLRHFFHRHLLMHLGRYIPFLPSEKLERTSSVSPSTAEPELSIVF
modifications: FITC-labeled CCL11, proteoliposomes with 60% cholesterol

The assay deals with CCL11 (eotaxin-1) 24-97 (Homo sapiens, UniProt P51671). As to the kind of experiment: fluorescence polarization.
Sequence of CCL11 (eotaxin-1) 24-97 (P51671 24-97): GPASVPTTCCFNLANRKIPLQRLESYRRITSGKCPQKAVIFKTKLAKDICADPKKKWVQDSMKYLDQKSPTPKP
In the case of B1, the Kd amounted to 30 nM. With B2 the figure was 20 nM.

B3 had a Kd of 11 nM.

Source of the values: publication PMC8417553 (2021).
